From US20220090012A1

Molecular target: Transforming Growth Factor Beta Receptor II (TGFBRII) (human) (UniProt P37173)
Assay: cell-based or functional assay

Chain of Transforming Growth Factor Beta Receptor II (TGFBRII) (human) (P37173 23-567): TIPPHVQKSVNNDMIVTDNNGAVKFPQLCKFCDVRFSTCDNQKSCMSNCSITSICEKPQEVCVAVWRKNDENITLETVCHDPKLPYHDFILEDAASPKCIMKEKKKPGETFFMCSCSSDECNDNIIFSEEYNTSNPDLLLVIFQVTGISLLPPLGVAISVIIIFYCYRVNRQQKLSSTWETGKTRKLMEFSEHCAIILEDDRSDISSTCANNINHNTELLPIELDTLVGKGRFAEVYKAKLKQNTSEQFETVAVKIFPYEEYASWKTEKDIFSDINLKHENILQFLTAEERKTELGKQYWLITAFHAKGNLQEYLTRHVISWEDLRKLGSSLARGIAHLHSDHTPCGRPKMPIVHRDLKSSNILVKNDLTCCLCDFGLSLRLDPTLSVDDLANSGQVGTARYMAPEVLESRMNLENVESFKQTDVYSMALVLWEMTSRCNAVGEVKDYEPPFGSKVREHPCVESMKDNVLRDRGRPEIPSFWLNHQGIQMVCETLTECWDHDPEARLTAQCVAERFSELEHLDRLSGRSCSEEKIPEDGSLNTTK

Q: Which CAR T cell expansion (cell number over time) with 10, 20, 50 and 100 ng/ml TGF-β does the source give for “recombinant human TGF-β (from UniProt P28072 35-239) (ligand)” here?
A: Its CAR T cell expansion (cell number over time) with 10, 20, 50 and 100 ng/ml TGF-β is < 10 ng/mL.
